Key:
[1] = tested on: HUVEC migration; experiment: HUVEC migration (wound healing) assay; format: cell-based, human; details: % of MOCK
Procedure: Genetic mutation introduced during antibody engineering induces unpredicted defects, resulting in deterioration in antibody functions. In order to isolate antibodies for suppressing clec14a-mediated angiogenesis, tube formation and endothelial cell migration assay using human umbilical vein endothelial cells (HUVECs) were conducted in the presence or absence of clone 1 IgG and deglyco C1-C4 IgGs. Among the four types of deglyco IgGs, deglyco C1 IgG was selected as a candidate antibody. […] In addition, it can be seen that deglyco C1 IgG includes desired alterations (N32R/N33C/S34G) in the amino acid sequence in light chain CDR1.
In order to compare in vitro angiogenesis suppression effect between deglyco C1 IgG and bevacizumab, tube formation and migration assay were conducted in the presence or absence of parent antibody IgG, deglyco C1 IgG or bevacizumab as a positive control group.

[2] = target: T1, hclec14-CTLD and hclec14a-ECD interaction (Homo sapiens, UniProt Q86T13); experiment: ELISA: interaction of hclec14a-CTLD-Fc-HRP with hclec14a-ECD; format: binding; details: increasing antibody concentration
T1 construct: hclec14a-CTLD-Fc-HRP was incubated together with purified hclec14a-ECD; hclec14a-ECD (extracellular domain of human clec14a); myc (C)
T1 sequence (Q86T13 33-173 limits assumed): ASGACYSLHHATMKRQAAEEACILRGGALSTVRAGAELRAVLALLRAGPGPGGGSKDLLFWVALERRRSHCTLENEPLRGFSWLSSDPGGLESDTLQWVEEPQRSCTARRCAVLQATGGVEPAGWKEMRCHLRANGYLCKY
Procedure: In addition, hclec14a-CTLD-Fc-HRP was incubated together with purified hclec14a-ECD in the presence of an increasing concentration of parent antibody IgG or deglyco C1 IgG, or in the absence thereof.

[3] = tested on: HUVECs; experiment: flow cytometry binding to endothelial cells; format: cell-based, human
Procedure: In order to identify whether or not deglyco C1 IgG binds to human endothelial cells, flow cytometry was conducted with HUVECs. […] In addition, in order to measure binding affinity of C1 IgG to hclec14a-ECD (extracellular domain of human clec14a), binding affinity of antibody-antigen binding was measured in real time. It can be seen that deglyco C1 IgG has a KD constant (equilibrium dissociation constant) of 6 nM, which is similar to that of parent antibody IgG (FIG. 3C).

[4] = tested on: HUVEC activity; experiment: endothelial cell activation (VCAM-1, ICAM-1 expression); format: cell-based, human
Procedure: In addition, the morphology of HUVEC was evaluated in the presence or absence of deglyco C1 IgG using immunocytochemistry. […] In order to evaluate effects of deglyco C1 IgG on the activity of endothelial cells, which is an initial inflammatory response to a harmful stimulus, HUVECs were treated with deglyco C1 IgG, and expression of an endothelial cell activity marker including VCAM-1 (vascular cell adhesion molecule-1) and ICAM-1 (intercellular cell adhesion molecule-1) was measured to monitor HUVEC activity. Human tumor necrosis factor-alpha (hTNFα) was used as a positive control group for endothelial cell activity.

[5] = in vivo toxicity in normal mouse; details: intravenous, twice a week
Description: In order to investigate in vivo toxicity of deglyco C1 IgG, deglyco C1 IgG was intravenously injected into a normal mouse twice a week, and hepatic and renal functions, body weight, and apoptosis conditions of hepatic and renal tissues between control groups and experimental groups were then compared. The hepatic function was investigated by measuring serum concentrations of glutamic-oxaloacetic transaminase (GOT), glutamic pyruvic transaminase (GPT), and total bilirubin (TBIL), and the renal function was investigated by measuring the concentrations of blood urea nitrogen (BUN) and creatinine (CRE). Apoptosis was measured by TUNEL staining.

[6] = tested on: binding of clec14a-CTLD to HUVECs; experiment: cell ELISA: hclec14a-CTLD-Fc-HRP binding to HUVECs; format: cell-based, human; details: increasing antibody concentration
Procedure: In order to analyze action mechanisms of deglyco C1 IgG at a molecule-scale, specifically, in angiogenesis, HUVECs were treated with hclec14a-CTLD-Fc-HRP (HRP-labeled hclec14a-CTLD-Fc) in the absence or presence of an increasing concentration of parent antibody IgG or deglyco C1 IgG.

[7] = tested on: HCT116 human colorectal cancer cells; experiment: Matrigel plug angiogenesis assay, CD31 microvessel density; format: in vivo; details: single dose of 5 mg/kg, 14 days
Procedure: (§1) Matrigel plug angiogenesis assay was conducted in the presence of deglyco C1 IgG or bevacizumab with a single dose of 5 mg/kg or the absence thereof using HCT116 human colorectal cancer cells and bevacizumab-applied HCT116 human colorectal cancer cells (HCT116 and HCT116/Beva). 14 days later, the Matrigel plug was removed, and immunohistochemistry was conducted on CD31 and microvascular markers. A microvessel density was measured by quantifying CD31 positive per field in an image each obtained by a confocal microscope.

[8] = tested on: HCT116/Beva cells; experiment: as above; format: in vivo; details: single dose of 5 mg/kg, 14 days
Procedure: as §1

[9] = tested on: CFPAC-1 cells; experiment: tumor cell-derived Matrigel plug angiogenesis assay; format: in vivo, mouse; details: single dose of 10 mg/kg, 2 weeks, nude mice
Procedure: (§2) In order to investigate in vivo effects of deglyco C1 IgG on tumor angiogenesis, tumor cell-derived Matrigel plug angiogenesis assay was conducted on thymus-removed nude mice. SNU182- and CFPAC-1 cells and U87 human glioma cells containing Matrigel were transplanted into thymus-removed nude mice in the presence of deglyco C1 IgG and bevacizumab with a single dose of 10 mg/kg or in the absence thereof. 2 weeks later, the Matrigel plug was removed and the total hemoglobulin content of each group was measured with an ELISA reader.

[10] = tested on: SNU182 cells; experiment: as above; format: in vivo, mouse; details: single dose of 10 mg/kg, 2 weeks, nude mice
Procedure: as §2

[11] = tested on: U87 human glioma cells; experiment: as above; format: in vivo, mouse; details: single dose of 10 mg/kg, 2 weeks, nude mice
Procedure: as §2

B1: deglyco C1 IgG: deglycosylated clone 1 IgG; light chain CDR1 TGSSSNIGRCGVT (SEQ ID NO: 2), N32R/N33C/S34G (antibody, V domains shown)
VH: EVQLVESGGGLVQPGGSLRLSCAVSGFTFSGYDMSWIRQAPGKGLEWVAGIYPDGGNTYYADSVKGRFTISRDDSKNTFYLQMNSLRAEDTAVYYCARGATWWVLGPFDYWGQGTLVTVSS
VL: DIQLTQSPSSLSASVGDRVTITCTGSSSNIGRCGVTWYQQKPGKAPKLLIYADSHRPSGVPSRFSGSGSGTDFTLTISSLQPEDFATYYCGAWDDSLSGYVFGQGTKVEIKR
[1]
  inhibitory activity against HUVEC migration: most excellent inhibitory activity
[1]; listed as Deglyco C1 IgG
  inhibitory activity against HUVEC migration: inhibited migration to a similar extent to bevacizumab
[2]
  suppression of interaction between hclec14-CTLD and hclec14a-ECD: directly suppressed
[3]
  binding to surfaces of HUVECs: specifically bound to the surfaces of HUVECs
[4]
  HUVEC activity (VCAM-1, ICAM-1 expression): almost no impact
[5]
  apoptosis of hepatic and renal tissues (TUNEL): apoptosis conditions were observed
  body weight: no significant change in body weight
  hepatic and renal functions (GOT, GPT, TBIL, BUN, CRE): no significant change
[6]
  suppression of binding of clec14a-CTLD to HUVECs: significantly suppressed
[7]
  microvessel formation (CD31 positive per field), HCT116: significantly reduced microvessel formation ability
[8]
  microvessel formation (CD31 positive per field), HCT116/Beva: significantly suppressed
[9]
  hemoglobin content, CFPAC-1-derived: significantly reduced hemoglobin
[10]
  hemoglobin content, SNU182-derived: significantly reduced hemoglobin
[11]
  hemoglobin content, U87-derived: significantly reduced hemoglobin
